Assay results: patent US20230002480A1

How the values were obtained:
Assay in all cases: cell-based or functional assay
[1] = biological target: HIV-1 Env of pseudovirus C1080.c03 (HIV-1)
[2] = biological target: HIV-1 Env of pseudovirus SC05_8C11_2344 (HIV-1)
[3] = biological target: HIV-1 Env of pseudovirus R1166.c01 (HIV-1)
[4] = biological target: HIV-1 Env of pseudovirus MS208.A1 (HIV-1)
[5] = biological target: HIV-1 Env of pseudovirus PVO.4 (HIV-1)
[6] = biological target: HIV-1 Env of pseudovirus R3265.c06 (HIV-1)
[7] = biological target: HIV-1 Env of pseudovirus Ce2010_F5 (HIV-1)
[8] = biological target: HIV-1 Env of pseudovirus ZM247v1(Rev-) (HIV-1)
[9] = biological target: HIV-1 Env of pseudovirus C3347.c11 (HIV-1)
[10] = biological target: HIV-1 Env of pseudovirus BJOX010000.06.2 (HIV-1)
[11] = biological target: HIV-1 Env of pseudovirus REJO4541.67 (HIV-1)
[12] = biological target: HIV-1 Env of pseudovirus 6244_13_B5_4576 (HIV-1)
[13] = biological target: HIV-1 Env of pseudovirus HIV-16845-2.22 (HIV-1)
[14] = biological target: HIV-1 Env of pseudovirus 231966.c02 (HIV-1)
[15] = biological target: HIV-1 Env of pseudovirus 0260.v5.c36 (HIV-1)
[16] = biological target: HIV-1 Env of pseudovirus A07412M1.vrc12 (HIV-1)
[17] = biological target: HIV-1 Env of pseudovirus WEAU_d15_410_787 (HIV-1)
[18] = biological target: HIV-1 Env of pseudovirus Ce1176_A3 (HIV-1)
[19] = biological target: HIV-1 Env of pseudovirus BJOX028000.10.3 (HIV-1)
[20] = biological target: HIV-1 Env of pseudovirus QH0692.42 (HIV-1)
[21] = biological target: HIV-1 Env of pseudovirus CNE8 (HIV-1)
[22] = biological target: HIV-1 Env of pseudovirus 6535.3 (HIV-1)
[23] = biological target: HIV-1 Env of pseudovirus Q23.17 (HIV-1)
[24] = biological target: HIV-1 Env of pseudovirus 1054_07_TC4_1499 (HIV-1)
[25] = biological target: HIV-1 Env of pseudovirus Ce1086_B2 (HIV-1)
[26] = biological target: HIV-1 Env of pseudovirus BJOX025000.01.1 (HIV-1)
[27] = biological target: HIV-1 Env of pseudovirus HIV-001428-2.42 (HIV-1)
[28] = biological target: HIV-1 Env of pseudovirus T278-50 (HIV-1)
[29] = biological target: HIV-1 Env of pseudovirus TRO.11 (HIV-1)
[30] = biological target: HIV-1 Env of pseudovirus Ce1172_H1 (HIV-1)
[31] = biological target: HIV-1 Env of pseudovirus CAAN5342.A2 (HIV-1)
[32] = biological target: HIV-1 Env of pseudovirus CNE53 (HIV-1)
[33] = biological target: HIV-1 Env of pseudovirus Q769.d22 (HIV-1)
[34] = biological target: HIV-1 Env of pseudovirus 3817.v2.c59 (HIV-1)
[35] = biological target: HIV-1 Env of pseudovirus 3365.v2.c2 (HIV-1)
[36] = biological target: HIV-1 Env of pseudovirus ZM233M.PB6 (HIV-1)
[37] = biological target: HIV-1 Env of pseudovirus HIV-0013095-2.11 (HIV-1)

**Q.** Which results are given for N49P6 (antibody)?
**A.** IC50 [1]: 0.181 µg/mL; IC80 [1]: 0.661 µg/mL; MPI [1]: 100; IC50 [2]: 0.266 µg/mL; IC80 [2]: 0.911 µg/mL; MPI [2]: 100; IC50 [3]: 0.102 µg/mL; IC80 [3]: 0.344 µg/mL; MPI [3]: 100; IC50 [4]: 0.11 µg/mL; IC80 [4]: 0.436 µg/mL; MPI [4]: 100; IC50 [5]: 0.128 µg/mL; IC80 [5]: 0.357 µg/mL; MPI [5]: 100; IC50 [6]: 0.101 µg/mL; IC80 [6]: 0.443 µg/mL; MPI [6]: 100; IC50 [7]: 0.124 µg/mL; IC80 [7]: 0.749 µg/mL; MPI [7]: 100; IC50 [8]: 0.063 µg/mL; IC80 [8]: 0.17 µg/mL; MPI [8]: 100; IC50 [9]: 0.08 µg/mL; IC80 [9]: 0.266 µg/mL; MPI [9]: 100; IC50 [10]: 0.681 µg/mL; IC80 [10]: 3.53 µg/mL; MPI [10]: 100; IC50 [11]: 0.066 µg/mL; IC80 [11]: 0.215 µg/mL; MPI [11]: 100; IC50 [12]: 0.095 µg/mL; IC80 [12]: 0.328 µg/mL; MPI [12]: 100; IC50 [13]: 0.692 µg/mL; IC80 [13]: 3.75 µg/mL; MPI [13]: 100; IC50 [14]: 0.339 µg/mL; IC80 [14]: 1.62 µg/mL; MPI [14]: 100; IC50 [15]: 0.485 µg/mL; IC80 [15]: 1.55 µg/mL; MPI [15]: 100; IC50 [16]: 0.229 µg/mL; IC80 [16]: 0.786 µg/mL; MPI [16]: 100; IC50 [17]: 0.07 µg/mL; IC80 [17]: 0.188 µg/mL; MPI [17]: 100; IC50 [18]: 0.594 µg/mL; IC80 [18]: 2.11 µg/mL; MPI [18]: 100; IC50 [19]: 6.68 µg/mL; IC80 [19]: > 50 µg/mL; MPI [19]: 77; IC50 [20]: 0.652 µg/mL; IC80 [20]: 2.28 µg/mL; MPI [20]: 100; IC50 [21]: 0.072 µg/mL; IC80 [21]: 0.245 µg/mL; MPI [21]: 100; IC50 [22]: 0.417 µg/mL; IC80 [22]: 1.34 µg/mL; MPI [22]: 100; IC50 [23]: 0.052 µg/mL; IC80 [23]: 0.185 µg/mL; MPI [23]: 100; IC50 [24]: 0.624 µg/mL; IC80 [24]: 2.85 µg/mL; MPI [24]: 100; IC50 [25]: 0.581 µg/mL; IC80 [25]: 4.09 µg/mL; MPI [25]: 98; IC50 [26]: 14.9 µg/mL; IC80 [26]: > 50 µg/mL; MPI [26]: 78; IC50 [27]: 0.016 µg/mL; IC80 [27]: 0.05 µg/mL; MPI [27]: 100; IC50 [28]: 25.7 µg/mL; IC80 [28]: > 50 µg/mL; MPI [28]: 67; IC50 [29]: 0.061 µg/mL; IC80 [29]: 0.19 µg/mL; MPI [29]: 100; IC50 [30]: 14.4 µg/mL; IC80 [30]: 47.3 µg/mL; MPI [30]: 82; IC50 [31]: 0.657 µg/mL; IC80 [31]: 1.83 µg/mL; MPI [31]: 100; IC50 [32]: 0.249 µg/mL; IC80 [32]: 0.871 µg/mL; MPI [32]: 99; IC50 [33]: 0.072 µg/mL; IC80 [33]: 0.318 µg/mL; MPI [33]: 100; IC50 [34]: 16.9 µg/mL; IC80 [34]: > 50 µg/mL; MPI [34]: 78; IC50 [35]: 0.129 µg/mL; IC80 [35]: 0.347 µg/mL; MPI [35]: 100; IC50 [36]: 1.23 µg/mL; IC80 [36]: 4 µg/mL; MPI [36]: 99; IC50 [37]: 0.971 µg/mL; IC80 [37]: 8.04 µg/mL; MPI [37]: 96
